Test results published in patent publication US20170369590A1 (Genmab, published 2017).
Where a chain is given by its changes, count along the chain named.

B1: HuMab 111 (antibody, V domains shown)
VH: QVQLVQSGAEVKKPGSSVKVSCKASGGTFSSYGISWVRQAPGPGLEWMGRIIPILGIANYAQKFQGRVTITADKSTNTAYMELSSLRSEDTAVYYCARDQEYSSNWYYWGQGTLVTVSS
VL: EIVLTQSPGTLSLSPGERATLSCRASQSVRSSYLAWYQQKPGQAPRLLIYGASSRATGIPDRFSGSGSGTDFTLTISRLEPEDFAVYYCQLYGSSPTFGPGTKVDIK
B2: HuMab 059 (antibody, V domains shown)
VH: QVQLVQSGAEVKKPGASVRVPCKASGYTFTRYGISWVRQAPGQGLEWMGWISAYNGKTYYAQKLQGRVTMTTDTSTSTAYMELRSLRSDDTAVYYCARSPLLWFEELYFDYWGQGTLVTVSS
VL: EIVLTQSPGTLSLSPGERATLSCRASQSVSSTYLAWYQQKPGQAPRLLIYGASSRATGIPDRFSGSGSGTDFTLTISRLEPEDFAVYYCQQYGTSLFTFGPGTKVDIK
notes: also called PC1014-059
B3: HuMab 060 (antibody, V domains shown)
VH: EVQLVQSGAEVKKPGESLKISCKGSGYRFTSYWIGWVRQMPGKGLEWMGSIYPGDSYTRNSPSFQGQVTISADKSIATAYLQWNSLKASDTAMYYCARHAGDFYYFDGLDVWGQGTTVTVSS
VL: not shown
notes: also called PC1014-060
B4: HuMab 106 (antibody, V domains shown)
VH: EVQLVQSGAEVKKPGESLKISCKGSGYSFTRYWIGWVRQMPGKGLEWMGIIYPGDSDTRYSPSFQGQVTISADKSISTAYLQWSSLKASDTAMYYCARLTGDRGFDYYSGMDVWGQGTTVTVSS
VL: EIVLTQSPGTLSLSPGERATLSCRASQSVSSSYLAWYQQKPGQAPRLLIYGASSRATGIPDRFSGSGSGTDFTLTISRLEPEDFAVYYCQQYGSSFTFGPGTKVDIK
B5: HuMab 132 (antibody, V domains shown)
VH: QVQLVQSGAEVKKPGASVKVSCKASGYTFTSYGISWVRQAPGQGLEWMGWISAYNGNSNYVQKFQGRVTMTTDTTTSTAYMELRSLTSDDTAVYYCAREYSYDSGTYFYYGMDVWGQGTTVTVSS
VL: EIVLTQSPATLSLSPGERATLSCRASQSVSSYLAWYQQKPGQAPRLLIYDASNRATGIPARFSGSGSGTDFTLTISSLEPEDFAVYYCQQRSNWPMYTFGQGTKLEIK
B6: HuMab 153 (antibody, V domains shown)
VH: QVQLVESGGGVVQPGRSLRLSCAASGFTFSDYVIHWVRQAPGKGLEWVTVISYDGSNKYYADSVKGRFTISRDNSKNTLYLQMNSLSAEDTAMYYCARGGITGTTGVFDYWGQGTLVTVSS
VL: DIQMTQSPSSLSASVGDRVTITCRASQGISSWLAWYQQKPEKAPKSLIYDASSLQSGVPSRFSGSGYGTDFSLTISSLQPEDFAIYYCQQYKSYPITFGQGTRLEIK
B7: HuMab 098 (antibody, V domains shown)
VH: EVQLLESGGGLVQPGGSLRLSCAASGFTFSNYGMSWVRQAPGKGLEWVSAISGSAYSTYYADSVKGRFTISRDNSKNTLWLQMNSLRAEDTAVYYCAKAHYHGSGSYYTLFDYWGQGTLVTVSS
VL: B6 VL with D50A, Y67S, S72T, I85T, K92N, I96Y, R103K
notes: also called TH1014-098; PC1014-098

target: T1, HER2ECDHis (human, UniProt P04626 23-653, biotinylated in the cross-block ELISA (sites not given)); assay: ELISA; competitor C1
T1 construct: range 1-653; expressed in HEK-293F; also called soluble HER2; biotinylated HER2ECDHis

Binder | % binding vs no competitor
B1 | 122%
B2 | 78%
B3 | 108%
B4 | 471%
B5 | 422%
B6 | 257%
B7 | 125%

target: T1, HER2ECDHis; assay: ELISA; competitor 159
Experimental: (§1) Next, the ELISA wells were washed with PBST (PBS supplemented with 0.05% Tween-20 [Sigma-Aldrich, Zwijndrecht, The Netherlands]) and blocked for one hour at room temperature (RT) with PBSTC (PBST supplemented 2% [v/v] chicken serum [Gibco, Paisley, Scotland]). The ELISA wells were then washed with PBST and incubated for one hour at RT with HER2ECDHis serially diluted in PBSTC (0.25-2 μg/mL in 2-fold dilutions). […] The plate was thereafter washed with PBST and incubated for one hour with 0.1 μg/mL Streptavidin-poly-HRP (Sanquin, Amsterdam, The Netherlands) diluted in PBST. After washing, the reaction was visualized through a 15 minutes incubation with 2,2′-azino-bis (3-ethylbenzothiazoline-6-sulfonic acid) (ABTS: one ABTS tablet diluted in 50 mL ABTS buffer (Roche Diagnostics, Almere, The Netherlands)) at RT protected from light. The colorization was stopped by adding an equal volume of oxalic acid (Sigma-Aldrich, Zwijndrecht, The Netherlands). Fluorescence at 405 nm was measured on a microtiter plate reader (Biotek Instruments, Winooski, USA).
(§2) Each HER2 antibody was coated to the ELISA wells at the sub-optimal dose that was determined as described above. After blocking of the ELISA wells, the wells were incubated with the predetermined concentration of 1 μg/mL biotinylated HER2ECDHis in the presence or absence of an excess of a second (competitor) HER2 antibody. The ELISA was then performed as described above. […] Percentage competition was then determined as 100 minus the percentage of inhibition.

Binder | % binding vs no competitor
B5 | 131%
B6 | 23%
B7 | 9%

target: T1, HER2ECDHis; assay: ELISA; competitor 132
Experimental: as §1, §2

Binder | % binding vs no competitor
B5 | 32%
B6 | 33%
B7 | 142%

target: T1, HER2ECDHis; assay: ELISA; competitor 084
Experimental: as §1, §2

Binder | % binding vs no competitor
B6 | 107%
B7 | 103%

target: T1, HER2ECDHis; assay: ELISA; competitor 106
Experimental: as §1, §2

Binder | % binding vs no competitor
B1 | 75%
B2 | 23%
B3 | 37%
B4 | 26%

target: T1, HER2ECDHis; assay: ELISA; competitor pert
Experimental: as §1, §2

Binder | % binding vs no competitor
B5 | 288%
B6 | 121%
B7 | 104%

target: T1, HER2ECDHis; assay: ELISA; competitor 111
Experimental: as §1, §2

Binder | % binding vs no competitor
B1 | 14%
B2 | 12%
B3 | 35%
B4 | 21%

target: T1, HER2ECDHis; assay: ELISA; competitor 091
Experimental: as §1, §2

Binder | % binding vs no competitor
B6 | 102%
B7 | 104%

target: T1, HER2ECDHis; assay: ELISA; competitor 050
Experimental: as §1, §2

Binder | % binding vs no competitor
B6 | 103%
B7 | 100%

target: T1, HER2ECDHis; assay: ELISA; competitor 129
Experimental: as §1, §2

Binder | % binding vs no competitor
B6 | 106%
B7 | 107%

target: T1, HER2ECDHis; assay: ELISA; competitor F5
Experimental: as §1, §2

Binder | % binding vs no competitor
B1 | 119%
B2 | 128%
B3 | 126%
B4 | 495%
B5 | 379%
B6 | 96%
B7 | 96%

target: T1, HER2ECDHis; assay: ELISA; competitor 025
Experimental: as §1, §2

Binder | % binding vs no competitor
B6 | 97%
B7 | 108%

target: T1, HER2ECDHis; assay: ELISA; competitor 153
Experimental: as §1, §2

Binder | % binding vs no competitor
B5 | 41%
B6 | 28%
B7 | 110%

target: T1, HER2ECDHis; assay: ELISA; competitor 060
Experimental: as §1, §2

Binder | % binding vs no competitor
B1 | 36%
B2 | 11%
B3 | 19%
B4 | 23%

target: T1, HER2ECDHis; assay: ELISA; competitor Tras
Experimental: as §1, §2

Binder | % binding vs no competitor
B1 | 110%
B2 | 117%
B3 | 106%
B4 | 323%

target: T1, HER2ECDHis; assay: ELISA; competitor tras
Experimental: as §1, §2

Binder | % binding vs no competitor
B5 | 353%
B6 | 134%
B7 | 107%

target: T1, HER2ECDHis; assay: ELISA; competitor 098
Experimental: as §1, §2

Binder | % binding vs no competitor
B5 | 309%
B6 | 115%
B7 | 17%

target: T2, human epidermal growth factor receptor 2 (HER2), membrane-bound on cells (human, UniProt P04626 23-1255); assay: cell-based or functional assay

Binder | % cells killed, A431, anti-kappa-ETA'-conjugated | EC50 of cell kill, A431, anti-kappa-ETA'-conjugated
B3 | 85% | ~0.01 µg/mL
B6 | 82.4% | ~0.0101 µg/mL
B7 | 87.2% | 0.00165 µg/mL

target: T2, human epidermal growth factor receptor …; assay: cell-based or functional assay; remark: another data set of the same source

Binder | % cells killed, AU565, anti-kappa-ETA'-conjugated | EC50 of cell kill, AU565, anti-kappa-ETA'-conjugated
B1 | 72% | 0.0242 µg/mL
B2 | 67% | 0.0677 µg/mL
B3 | 64.3% | 0.0794 µg/mL
B4 | 59.1% | 0.108 µg/mL
B5 | 61.6% | 0.0394 µg/mL
B6 | 60.3% | 0.0323 µg/mL
B7 | 58.7% | 0.0121 µg/mL

target: T2, human epidermal growth factor receptor …; assay: cell-based or functional assay; remark: another data set of the same source

Binder | EC50, fab-CypHer5E internalization, AU565 | Maximal MFI, fab-CypHer5E internalization, AU565
B1 | 0.0352 µg/mL | 81700 MFI
B2 | 0.0148 µg/mL | 77100 MFI
B3 | 0.0362 µg/mL | 68200 MFI
B4 | 0.0686 µg/mL | 57400 MFI
B5 | 0.0114 µg/mL | 112000 MFI
B6 | ~0.0149 µg/mL | 87500 MFI
B7 | 0.0138 µg/mL | 135000 MFI

target: T1, HER2ECDHis; assay: ELISA; competitor 005
Experimental: as §1, §2

Binder | % binding vs no competitor
B1 | 51%
B2 | 13%
B3 | 30%
B4 | 25%

target: T1, HER2ECDHis; assay: ELISA; competitor 127
Experimental: as §1, §2

Binder | % binding vs no competitor
B5 | 30%
B6 | 27%
B7 | 21%

target: T1, HER2ECDHis; assay: ELISA; competitor Pert
Experimental: as §1, §2

Binder | % binding vs no competitor
B1 | 102%
B2 | 107%
B3 | 99%
B4 | 275%

target: T1, HER2ECDHis; assay: ELISA; competitor 059
Experimental: as §1, §2

Binder | % binding vs no competitor
B1 | 65%
B2 | 12%
B3 | 14%
B4 | 25%

target: T1, HER2ECDHis; assay: ELISA; competitor 169
Experimental: as §1, §2

Binder | % binding vs no competitor
B6 | 111%
B7 | 102%

target: T1, HER2ECDHis; assay: ELISA; competitor 006
Experimental: as §1, §2

Binder | % binding vs no competitor
B1 | 10%
B2 | 11%
B3 | 6%
B4 | 25%
